Results on five proteins are retold here after publication PMC7961821, “Comparing Ligninolytic Capabilities of Bacterial and Fungal Dye-Decolorizing Peroxidases and Class-II Peroxidase-Catalases” (International Journal of Molecular Sciences, 2021).

What all share (assay): purified protein
Substrate in series [1]: COc1ccc(C(O)C(CO)Oc2ccccc2OC)cc1OC
The series is classed as biochemical, Auricularia auricula-judae. To be noted: 1 mM H2O2, 100 mM tartrate, pH 3, 25 °C.

Substrate in series [2]: COc1ccc(C(O)C(CO)Oc2ccccc2OC)cc1OC
The class given is biochemical, Pleurotus eryngii. Conditions: 1 mM H2O2, 100 mM tartrate, pH 3, 25 °C.

Substrate in series [3]: COc1cc(C(O)C(CO)Oc2ccccc2OC)ccc1O
Conditions: 1 mM H2O2, 100 mM tartrate, pH 3, 25 °C, pH 3.0.

Substrate in series [4]: CCn1c(=NN=c2sc3cc(S(=O)(=O)O)ccc3n2CC)sc2cc(S(=O)(=O)O)ccc21
The class given is biochemical, Thermomonospora curvata. To be noted: 1 mM H2O2, pH 3, 25 °C.

Substrate in series [5]: Nc1c(S(=O)(=O)O)cc(Nc2cccc(S(=O)(=O)CCOS(=O)(=O)O)c2)c2c1C(=O)c1ccccc1C2=O
To be noted: 1 mM H2O2, optimal pH (not given for RB19), 25 °C.

Substrate in series [6]: COc1cccc(OC)c1O
Substrate in series [7]: COc1ccc(C(O)C(CO)Oc2ccccc2OC)cc1OC
The series is classed as biochemical, Phanerodontia chrysosporium. To be noted: 1 mM H2O2, 100 mM tartrate, pH 3, 25 °C.

Substrate in series [8]: CCn1c(=NN=c2sc3cc(S(=O)(=O)O)ccc3n2CC)sc2cc(S(=O)(=O)O)ccc21
The class given is biochemical, Amycolatopsis sp. ATCC 39116. Conditions: 1 mM H2O2, pH 5, 25 °C.

One may read the Km as the concentration of substrate that gives half-maximal velocity. Usually kcat stands for the maximal rate divided by the concentration of active sites. As usually defined, the kcat/Km is the turnover number divided by the Michaelis constant.

B1: AauDyP (Auricularia auricula-judae) (protein)
chain: ATSLNTDDIQGDILVGMHKQKQLFYFFAINDPATFKTHLASDIAPVVASVTQLSNVATQPLVALNIAFSNTGLLALGVTDNLGDSLFANGQAKDATSFKESTSSWVPQFAGTGIHGVIILASDTTDLIDQQVASIESTFGSSISKLYSLSASIRPGNEAGHEMFGFLDGIAQPAINGFNTPLPGQNIVDAGVIITGATNDPITRPSWAVGGSFLAFRQLEQLVPEFNKYLLDNAPAGSGSLQARADLLGARMVGRWKSGAPIDLTPTADDPALGADAQRNNNFTYSHAGFDLGSDQSHCPFSAHIRKTRPRADLGGSLTPPNLSAGANSIMRSGIPYGPEVTSAESASNTTTQERGLAFVAYQAQLSQGFHFLQQTWADNANFPPGKTPATVGLDPIIGQNNGQPRVVNGLLPSNSSASLSIPQFVVSHGGEYFFSPPISAIGGRLSA
notes: heme enzyme
With B1, in the series “purified protein [1]”, the Km came out at 448 ± 59 µM, the kcat is 0.3 ± 0.01 s⁻¹ and the kcat/Km came out at 700 ± 100 M⁻¹ s⁻¹.

B2: PerVPL (Pleurotus eryngii) (protein)
chain: ATCDDGRTTANAACCILFPILDDIQENLFDGAQCGEEVHESLRLTFHDAIGFSPTLGGGGADGSIIAFDTIETNFPANAGIDEIVSAQKPFVAKHNISAGDFIQFAGAVGVSNCPGGVRIPFFLGRPDAVAASPDHLVPEPFDSVDSILARMGDAGFSPVEVVWLLASHSIAAADKVDPSIPGTPFDSTPGVFDSQFFIETQLKGRLFPGTADNKGEAQSPLQGEIRLQSDHLLARDPQTACEWQSMVNNQPKIQNRFAATMSKMALLGQDKTKLIDCSDVIPTPPALVGAAHLPAGFSLSDVEQACAATPFPALTADPGPVTSVPPVPGS
notes: heme enzyme
Take B2: in “purified protein [2]”, the Km was determined as 659 ± 80 µM, the kcat came to 1.2 ± 0.1 s⁻¹ and the kcat/Km was 1800 ± 100 M⁻¹ s⁻¹. In addition, in “purified protein [3]”, the Km is given as 206 ± 17 µM, the kcat worked out at 2.7 ± 0.1 s⁻¹ and the kcat/Km amounted to 13200 ± 700 M⁻¹ s⁻¹.

B3: TcuDyP (Thermomonospora curvata DSM 43183) (protein)
chain: SEERAAGARPSATQTTGTATEPFHGPHQAGIATPPQAHAVFLGLDLRKGTGRKELGRLMRLLTDDARRLTQGRPALADPEPDLAPLPSRLTFTFGFGPGLFKAAGLEKQRPEGLRPLPPFKVDRLEDRWSGGDLLVQICCDDPITLAHALRMTVKDARAFTRVRWVQRGFRRSPGVQSSGATQRNLMGQLDGTVNPVPGTADFDQAVWVQDGPEWLRGGTTLVLRRIRMELEKWDEADPAGKEFAVGRRLTSGAPLTGRHEHDEPDFDAVDSAGFPVIAENAHIRLAHVDSPRLRMLRRPYNYDEGLTADGRSDAGLLFAAYQADIDRQFIPVQRRLDEGGDLLNLWTTPIGSAVFAIPPGCDENGWIGQGLLG
notes: mature protein without signal peptide, codon-optimised, N-terminal His tag (pET28a), soluble from E. coli BL21(DE3) pLysS, heme enzyme
As for B3, the Km was 309 ± 95 µM in the series “purified protein [4]”; 80 ± 16 µM in the series “purified protein [3]”; 7 ± 2 µM in “purified protein [5]”; 2 ± 0.3 µM in the series “purified protein [6]” (1 mM H2O2, pH 3, 25 °C, pH 3.0). For the same protein, the kcat was determined as 53.0 ± 6.1 s⁻¹ in the series “purified protein [4]”; 1.1 ± 0.1 s⁻¹ in “purified protein [3]”; 1.3 ± 0.1 s⁻¹ in the series “purified protein [5]”; 2.7 ± 0.4 s⁻¹ in the series “purified protein [6]” (1 mM H2O2, pH 3, 25 °C, pH 3.0). Besides, the kcat/Km was determined as 170000 ± 30000 M⁻¹ s⁻¹ in “purified protein [4]”; 14200 ± 1800 M⁻¹ s⁻¹ in “purified protein [3]”; 200000 ± 40000 M⁻¹ s⁻¹ in the series “purified protein [5]”; 1.3e+06 ± 100000 M⁻¹ s⁻¹ in the series “purified protein [6]” (1 mM H2O2, pH 3, 25 °C, pH 3.0).

B4: PchLiPA (Phanerodontia chrysosporium) (protein)
chain: ATCSNGKTVGDASCCAWFDVLDDIQQNLFHGGQCGAEAHESIRLVFHDSIAISPAMEAQGKFGGGGADGSIMIFDDIETAFHPNIGLDEIVKLQKPFVQKHGVTPGDFIAFAGRVALSNCPGAPQMNFFTGRAPATQPAPDGLVPEPFHTVDQIINRVNDAGEFDELELVWMLSAHSVAAVNDVDPTVQGLPFDSTPGIFDSQFFVETQLRGTAFPGSGGNQGEVESPLPGEIRIQSDHTIARDSRTACEWQSFVNNQSKLVDDFQFIFLALTQLGQDPNAMTDCSDVIPQSKPIPGNLPFSFFPAGKTIKDVEQACAETPFPTLTTLPGPETSVQRIPPPPGA
notes: heme enzyme
As to B4, in “purified protein [7]”, the Km stood at 88 ± 3 µM, the kcat came to 1.3 ± 0.2 s⁻¹ and the kcat/Km was 14700 ± 400 M⁻¹ s⁻¹. Further, in “purified protein [3]”, the Km came to 208 ± 41 µM, the kcat amounted to 1.3 ± 0.1 s⁻¹ and the kcat/Km was found to be 6500 ± 700 M⁻¹ s⁻¹.

B5: AspDyP2 (Amycolatopsis sp. ATCC 39116) (protein)
chain: MPVDLSTTLSWKSATGEAATMLDELQPNILKAHVRDRLTVLFLGFGDAAEARTFLNGLSGLMKSARTHLQEVEAHKLTKAVGTPYLGVGLTAHGYATLGVTAPADPSFTAGAKAAVEKLADPAVTEWEGHYQQTIDAVLLLGDATAGPVRTLRRQVEALRPASVTVVGEESGLGLANANGDGIEHFGYVDGRSQPLFLTEDVDAERDTTDGVNDWDPSAPLEQVLVPDPAAPDPTVHFGSYFVFRKLEQNVRLFKEAERDLAHDLGLRGEDRERAGAMLVGRFEDGTPLTAQSAPGSHHPVGNDFSYDSDKLGQKCPFHAHIRKTNPRGSGGAEAPEEERKHLMARRGQTYGRRHDDPNADLPPRLRPAKDVGLLFMAFNSNLGNQFEFTQQIWANNPAFPFPPDGSQPGLDPVIGQGARAPQKYAPEWGHNNVAEATDPIPQAVTMKGGEYFFMPSLAFLRSL
notes: mature protein, codon-optimised, N-terminal His tag (pET28a), soluble from E. coli BL21(DE3) pLysS, heme enzyme
B5: the Km in “purified protein [8]” came out at 165 ± 18 µM; in the series “purified protein [3]”, 179 ± 39 µM; in the series “purified protein [5]”, 20 ± 4 µM; in “purified protein [6]” (1 mM H2O2, pH 4, 25 °C, pH 4.0), 177 ± 34 µM. The kcat in the series “purified protein [8]” worked out at 30.0 ± 0.9 s⁻¹; in “purified protein [3]”, 12.0 ± 1.2 s⁻¹; in the series “purified protein [5]”, 26.0 ± 2.0 s⁻¹; in the series “purified protein [6]” (1 mM H2O2, pH 4, 25 °C, pH 4.0), 94.0 ± 4.6 s⁻¹. Further, the kcat/Km in “purified protein [8]” worked out at 180000 ± 20000 M⁻¹ s⁻¹; in “purified protein [3]” it was 67000 ± 8500 M⁻¹ s⁻¹; in the series “purified protein [5]” it was 1.3e+06 ± 200000 M⁻¹ s⁻¹; in the series “purified protein [6]” (1 mM H2O2, pH 4, 25 °C, pH 4.0), 530000 ± 80000 M⁻¹ s⁻¹.
